In article PMC12043515, “Stepwise neofunctionalization of the NF-κB family member Rel during vertebrate evolution”:

Legend:
Rel RHR homodimer [1] = molecular target: T1, Rel RHR homodimer (UniProt P15307 8-297); assay: SPR; less stable than κB2; EMSA: 10 mM Tris-HCl pH 7.5, 150 mM NaCl, 1 mM DTT, 1 mM EDTA, 5% glycerol, 80 ng/ul dI-dC, 200 ng/ul BSA, 4 C; off-rate with 100-fold unlabeled consensus. SPR: 10 mM HEPES pH 7.5, 150 mM NaCl, 3 mM EDTA, 0.005% Tween 20, 10 C; settings: protein: recombinant; chain copies: 2; label: biotin
Rel RHR homodimer [2] = molecular target: T1, Rel RHR homodimer; assay: EMSA; EMSA: 10 mM Tris-HCl pH 7.5, 150 mM NaCl, 1 mM DTT, 1 mM EDTA, 5% glycerol, 80 ng/ul dI-dC, 200 ng/ul BSA, 4 C; off-rate with 100-fold unlabeled consensus. SPR: 10 mM HEPES pH 7.5, 150 mM NaCl, 3 mM EDTA, 0.005% Tween 20, 10 C; settings: protein: recombinant; chain copies: 2; label: 32P
Rel RHR homodimer [3] = molecular target: T1, Rel RHR homodimer; assay: SPR; less stable than κB2 and κB1; EMSA: 10 mM Tris-HCl pH 7.5, 150 mM NaCl, 1 mM DTT, 1 mM EDTA, 5% glycerol, 80 ng/ul dI-dC, 200 ng/ul BSA, 4 C; off-rate with 100-fold unlabeled consensus. SPR: 10 mM HEPES pH 7.5, 150 mM NaCl, 3 mM EDTA, 0.005% Tween 20, 10 C; settings: protein: recombinant; chain copies: 2; label: biotin
Rel RHR homodimer [4] = molecular target: T1, Rel RHR homodimer; assay: SPR; slower off-rate than on …; EMSA: 10 mM Tris-HCl pH 7.5, 150 mM NaCl, 1 mM DTT, 1 mM EDTA, 5% glycerol, 80 ng/ul dI-dC, 200 ng/ul BSA, 4 C; off-rate with 100-fold unlabeled consensus. SPR: 10 mM HEPES pH 7.5, 150 mM NaCl, 3 mM EDTA, 0.005% Tween 20, 10 C; settings: protein: recombinant; chain copies: 2; label: biotin
Rel RHR homodimer [5] = molecular target: T1, Rel RHR homodimer; assay: SPR; most stable of Il12b motifs; EMSA: 10 mM Tris-HCl pH 7.5, 150 mM NaCl, 1 mM DTT, 1 mM EDTA, 5% glycerol, 80 ng/ul dI-dC, 200 ng/ul BSA, 4 C; off-rate with 100-fold unlabeled consensus. SPR: 10 mM HEPES pH 7.5, 150 mM NaCl, 3 mM EDTA, 0.005% Tween 20, 10 C; settings: protein: recombinant; chain copies: 2; label: biotin
Rel RHR homodimer [6] = molecular target: T1, Rel RHR homodimer; assay: EMSA; three dimers bound simultaneously; EMSA: 10 mM Tris-HCl pH 7.5, 150 mM NaCl, 1 mM DTT, 1 mM EDTA, 5% glycerol, 80 ng/ul dI-dC, 200 ng/ul BSA, 4 C; off-rate with 100-fold unlabeled consensus. SPR: 10 mM HEPES pH 7.5, 150 mM NaCl, 3 mM EDTA, 0.005% Tween 20, 10 C; settings: protein: recombinant; chain copies: 2; label: 32P
RelA RHR homodimer = RelA RHR homodimer (UniProt Q04207 19-306); assay: EMSA; only one dimer bound; EMSA: 10 mM Tris-HCl pH 7.5, 150 mM NaCl, 1 mM DTT, 1 mM EDTA, 5% glycerol, 80 ng/ul dI-dC, 200 ng/ul BSA, 4 C; off-rate with 100-fold unlabeled consensus. SPR: 10 mM HEPES pH 7.5, 150 mM NaCl, 3 mM EDTA, 0.005% Tween 20, 10 C; settings: protein: recombinant; chain copies: 2; label: 32P
Sequence of RelA RHR homodimer (Q04207 19-306): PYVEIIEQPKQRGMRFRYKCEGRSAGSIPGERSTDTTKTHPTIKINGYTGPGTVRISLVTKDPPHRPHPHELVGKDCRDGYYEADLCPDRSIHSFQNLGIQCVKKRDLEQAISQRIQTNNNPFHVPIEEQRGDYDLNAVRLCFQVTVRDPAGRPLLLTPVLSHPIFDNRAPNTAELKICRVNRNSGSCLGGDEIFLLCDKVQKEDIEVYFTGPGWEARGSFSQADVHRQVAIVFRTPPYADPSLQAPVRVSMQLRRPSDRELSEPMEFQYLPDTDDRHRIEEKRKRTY

T1 sequence (P15307 8-297): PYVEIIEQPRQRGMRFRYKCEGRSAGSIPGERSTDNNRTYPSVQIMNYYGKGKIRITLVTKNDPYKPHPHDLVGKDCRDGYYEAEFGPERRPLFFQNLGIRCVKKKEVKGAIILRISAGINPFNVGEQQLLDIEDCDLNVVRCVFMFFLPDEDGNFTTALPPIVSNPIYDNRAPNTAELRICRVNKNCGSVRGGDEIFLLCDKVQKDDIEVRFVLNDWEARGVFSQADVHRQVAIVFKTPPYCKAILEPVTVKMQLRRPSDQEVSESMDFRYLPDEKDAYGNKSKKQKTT

B1: κB1 (SPR) (dsDNA)
DNA 1: CCTAACATCAGGAACTTCTTTGATGTTAGG
DNA 2: CCTAACATCAAAGAAGTTCCTGATGTTAGG
Q: Does B1 bind (Rel RHR homodimer [1])?
A: binds

B2: κB1 EMSA probe (dsDNA)
DNA 1: CCTAACATCAGGAACTTCTTTGATGTTAGG
DNA 2: CCTAACATCAAAGAAGTTCCTGATGTTAGG
Q: Does B2 bind (Rel RHR homodimer [2])?
A: binds

B3: κB3 EMSA probe (dsDNA)
DNA 1: CCTAACATCAAGAATGTTTTTGATGTTAGG
DNA 2: CCTAACATCAAAAACATTCTTGATGTTAGG
Q: Does B3 bind (Rel RHR homodimer [2])?
A: binds

B4: κB3 (SPR) (dsDNA)
DNA 1: CCTAACATCAAGAATGTTTTTGATGTTAGG
DNA 2: CCTAACATCAAAAACATTCTTGATGTTAGG
Q: Does B4 bind (Rel RHR homodimer [3])?
A: binds

B5: SPR GGGGGTTTTT (dsDNA)
DNA 1: CCTAACATCAGGGGGTTTTTTGATGTTAGG
DNA 2: CCTAACATCAAAAAACCCCCTGATGTTAGG
Q: Does B5 bind (Rel RHR homodimer [4])?
A: binds

B6: κB2 (SPR) (dsDNA)
DNA 1: CCTAACATCAAAAATTCCCCTGATGTTAGG
DNA 2: CCTAACATCAGGGGAATTTTTGATGTTAGG
Q: Does B6 bind (Rel RHR homodimer [5])?
A: binds

B7: κB1+2+3 (dsDNA)
DNA 1: AGGAACTTCTTAAAATTCCCCCAGAATGTTTTGACA
DNA 2: TGTCAAAACATTCTGGGGGAATTTTAAGAAGTTCCT
Q: Does B7 bind (Rel RHR homodimer [6])?
A: binds

Q: Does B7 bind (RelA RHR homodimer)?
A: binds

B8: κB2 EMSA probe (dsDNA)
DNA 1: CCTAACATCAAAAATTCCCCGATGTTAGG
DNA 2: CCTAACATCGGGGAATTTTTGATGTTAGG
Q: Does B8 bind (Rel RHR homodimer [2])?
A: binds
